Laboratory results: patent US20200297760A1, “COMPOSITIONS AND METHODS FOR REDUCING IMMUNE RESPONSES AGAINST CHIMERIC ANTIGEN RECEPTORS” (Juno Therapeutics, Inc., priority 2015, published 2020)

Assays:
Conditions in all cases: remark: other sources report otherwise
HLA-A*02:01 (human) = experiment: REVEAL MHC-peptide binding assay, recombinant HLA
HLA-A*03:01 (human) = experiment: REVEAL MHC-peptide binding assay, recombinant HLA
[1] = molecular target: HLA-A*02:01 (recombinant MHC class I molecule) (human); experiment: REVEAL MHC-peptide binding assay, recombinant MHC, score normalised to positive control = 100
[2] = molecular target: HLA-A*03:01 (recombinant MHC class I molecule) (human); experiment: as above
[3] = molecular target: HLA-A*11:01 (recombinant MHC class I molecule) (human); experiment: REVEAL MHC-peptide binding assay, stabilisation of ternary complex with recombinant MHC
[4] = molecular target: HLA-B*08:01 (recombinant MHC class I molecule) (human); experiment: as above

Binder	In Vitro Score (% of positive control peptide) (HLA-A*02:01 (human))	In Vitro Score (% of positive control peptide) (HLA-A*03:01 (human))	further results
IIFWVQRGR	5.8	18	
AFIIFWVAR	2.2	0.5	
IIFWVSRGR	2.6	25.3	
IFWVQRGRK	6.1	36.7	
VAFIIFWVR [Synthetic peptide … (K28R)]			In Vitro Score (% of positive control peptide) [1]: 1.2; In Vitro Score (% of positive control peptide) [2]: 0.7
IFWVSRGRK	1.3	39.2	
VAFIIFWVS	70.6	0.7	
IFWVQRGNK	16.1	23.2	
IFWVKRGNK	3.5		
IIFWVKRGS	13.6	16.2	
IFWVKRGAK	13.8	22	
IIFWVKRGR	1.7	24.3	
IIFWVKRGL	82.2	15.9	
AFIIFWVHR	0.3	0.3	
VAFIIFWVK	0.7	1.5	
IFWVQRGAK	11.7	17	
WVKRGNKKL	2.4	0.9	

Binder	In Vitro Score (% of positive control peptide) (HLA-A*02:01 (human))	In Vitro Score (% of positive control peptide) (HLA-A*03:01 (human))	further results
WVKRGHKKL	3.9	1.4	
IFWVHRGRK	7.1	37.8	
FIIFWVHRG	37.3	0	
IIFWVKRGA	85.9	42.9	
VAFIIFWVR [… synthetic peptide K28R (SEQ ID NO: 100)]			In Vitro Score (% of positive control peptide) [3]: 34.6; In Vitro Score (% of positive control peptide) [4]: 0.1
WVQRGNKKL	4.3	1.5	
IFWVARGRK	1	53.7	
IFWVKRGSK	2.4	10.4	
WVKRGSKKL	3	1.9	
IFWVKRGLK	2.4	26.9	
WVQRGRKKL		4.9	
IIFWVHRGR	4.7	30.1	
IIFWVQRGA	95.3	2.7	
WVKRGAKKL	4.7	4.1	
IFWVKRGHK	2.2		
AFIIFWVSR	4.5	0.3	
